From article PMC7780238, “Structures of ISC th4 transpososomes reveal the role of asymmetry in copy‐out/paste‐in DNA transposition”

Experiments:
[1] = target: ISCth4 transposase (TnpA) (Clostridium thermocellum (ATCC 27405)); assay: AUC; sedimentation velocity, TnpA alone at 0.5-2 uM, 20 C, 50,000 RPM, 10 mM HEPES pH 7.5, 100 mM, 0.3 mM TCEP; monomer to dimer
[2] = target: ISCth4 transposase (TnpA) (Clostridium thermocellum (ATCC 27405)); assay: AUC; sedimentation velocity, TnpA (0.5 or 5 uM) with molar excess of TIR DNA oligonucleotides (R-TIR26 at 4:1 DNA:TnpA; R35(j6)L35 or R35r41 with increasing DNA), 20 C, 10 mM HEPES pH 7.5, 100 mM, 0.3 mM TCEP
[3] = target: T1, ISCth4 transposase (TnpA) (Clostridium thermocellum ATCC 27405, UniProt A3DBR0 1-407); assay: SEC; 40 uM TnpA; ~450 kDa, octamer with 4 TIRs; behaves like R-TIR; SEC: 10 mM HEPES pH 7.5, 100 mM NaCl, 0.3 mM TCEP, 4 C. Crystals: PCC 25 mM HEPES pH 7.5, 150 mM NaCl, 2 mM TCEP, 20 C; PRC/STC1 10 mM HEPES pH 7.5, 100 mM NaCl; conditions: protein: recombinant; tags: Trx-His-TEV fusion removed by TEV; chain copies: 2; blunt
T1 sequence: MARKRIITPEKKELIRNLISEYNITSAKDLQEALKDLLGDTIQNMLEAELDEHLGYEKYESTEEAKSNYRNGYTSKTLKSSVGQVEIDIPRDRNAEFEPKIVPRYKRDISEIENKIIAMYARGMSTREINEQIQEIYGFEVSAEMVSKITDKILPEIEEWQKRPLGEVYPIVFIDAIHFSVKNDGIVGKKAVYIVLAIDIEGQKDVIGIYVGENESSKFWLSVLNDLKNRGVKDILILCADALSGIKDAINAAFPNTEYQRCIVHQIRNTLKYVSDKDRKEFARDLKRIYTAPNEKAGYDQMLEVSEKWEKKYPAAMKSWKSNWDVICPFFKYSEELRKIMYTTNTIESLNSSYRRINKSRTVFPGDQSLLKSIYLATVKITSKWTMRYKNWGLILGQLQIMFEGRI

[4] = target: T1, ISCth4 transposase (TnpA); assay: SV AUC; 5 uM TnpA; ~7.9 S, plus ~12 S at DNA:TnpA 0.25:1; SEC: 10 mM HEPES pH 7.5, 100 mM NaCl, 0.3 mM TCEP, 4 C. Crystals: PCC 25 mM HEPES pH 7.5, 150 mM NaCl, 2 mM TCEP, 20 C; PRC/STC1 10 mM HEPES pH 7.5, 100 mM NaCl; conditions: protein: recombinant; tags: Trx-His-TEV fusion removed by TEV; chain copies: 2; blunt
[5] = target: T1, ISCth4 transposase (TnpA); assay: SV AUC; 5 uM TnpA; 7.9 S, 138 kDa dimer:1 DNA, plus ~12 S at DNA:TnpA 0.25:1; SEC: 10 mM HEPES pH 7.5, 100 mM NaCl, 0.3 mM TCEP, 4 C. Crystals: PCC 25 mM HEPES pH 7.5, 150 mM NaCl, 2 mM TCEP, 20 C; PRC/STC1 10 mM HEPES pH 7.5, 100 mM NaCl; conditions: protein: recombinant; tags: Trx-His-TEV fusion removed by TEV; chain copies: 2; label: 5'FAM on strand 1 in the labeled version; blunt
[6] = target: T1, ISCth4 transposase (TnpA); assay: X-ray crystallography; PRC; TnpA dimer on one DNA; 10 mM CaCl2 in precipitant; SEC: 10 mM HEPES pH 7.5, 100 mM NaCl, 0.3 mM TCEP, 4 C. Crystals: PCC 25 mM HEPES pH 7.5, 150 mM NaCl, 2 mM TCEP, 20 C; PRC/STC1 10 mM HEPES pH 7.5, 100 mM NaCl; conditions: protein: recombinant; tags: Trx-His-TEV fusion removed by TEV; chain copies: 2; blunt
[7] = target: T1, ISCth4 transposase (TnpA); assay: X-ray crystallography; PCC; TnpA dimer on one DNA, no metal in active site; 3.5 A native; SEC: 10 mM HEPES pH 7.5, 100 mM NaCl, 0.3 mM TCEP, 4 C. Crystals: PCC 25 mM HEPES pH 7.5, 150 mM NaCl, 2 mM TCEP, 20 C; PRC/STC1 10 mM HEPES pH 7.5, 100 mM NaCl; conditions: protein: recombinant; tags: Trx-His-TEV fusion removed by TEV; chain copies: 2; blunt
[8] = target: T1, ISCth4 transposase (TnpA); assay: X-ray crystallography; STC1; TnpA dimer on one DNA; ZnCl2 in drop; SEC: 10 mM HEPES pH 7.5, 100 mM NaCl, 0.3 mM TCEP, 4 C. Crystals: PCC 25 mM HEPES pH 7.5, 150 mM NaCl, 2 mM TCEP, 20 C; PRC/STC1 10 mM HEPES pH 7.5, 100 mM NaCl; conditions: protein: recombinant; tags: Trx-His-TEV fusion removed by TEV; chain copies: 2; 3 strands; blunt outer ends; 1-nt gap between S68 and S66

ISCth4 transposase (TnpA) (enzyme)
stoichiometry N [1]: 2
stoichiometry N [2]: 2

B1: L-TIR26 (dsDNA)
DNA 1: GAGATTGTAAAATATTTTATGTAAAC
DNA 2: GTTTACATAAAATATTTTACAATCTC
binding result [3]: binds

B2: R35r41 (dsDNA)
DNA 1: GCACTGGATGTTTACACAAAAATATTTACACTGCCTTTTTTTACCTAGTCATCAATGCCTACGTACGTAACGTTAC
DNA 2: GTAACGTTACGTACGTAGGCATTGATGACTAGGTAAAAAAAGGCAGTGTAAATATTTTTGTGTAAACATCCAGTGC
binding result [4]: binds

B3: R35(j6)L35 (dsDNA)
DNA 1: GCACTGGATGTTTACACAAAAATATTTACACTGCCTTTTTTGAGATTGTAAAATATTTTATGTAAACAGTGCACTG
DNA 2: CAGTGCACTGTTTACATAAAATATTTTACAATCTCAAAAAAGGCAGTGTAAATATTTTTGTGTAAACATCCAGTGC
binding result [5]: binds

B4: fR-TIR26 (dsDNA)
DNA 1: TTTTTGGGCAGTGTAAATATTTTTGTGTAAAC
DNA 2: GTTTACACAAAAATATTTACACTGCCCAAAAA
binding result [6]: binds

B5: R-TIR26 (dsDNA)
DNA 1: GGCAGTGTAAATATTTTTGTGTAAAC
DNA 2: GTTTACACAAAAATATTTACACTGCC
binding result [7]: binds

B6: R26(j6)L15-5'rec (dsDNA)
DNA 1: GTTTACACAAAAATATTTACACTGCCGTTTTGGAGATTGTAAAATAT
DNA 2: ATATTTTACAATCTCCAAAAC
DNA 3: GCAGTGTAAATATTTTTGTGTAAAC
binding result [8]: binds
